Reference: the supplement of paper PMC9112550, “Optimization of the antimicrobial peptide Bac7 by deep mutational scanning” (BMC Biology, 2022)

System: Escherichia coli TOP10
Test: shrunken log2 fold change of peptide-encoding DNA abundance (4.5 h post-induction vs induction); higher = less antimicrobial activity (less host growth inhibition)
Conditions: time post-induction: 4.5 h; library: site-saturation at positions 5, 18, 19, 20
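Note: peptides expressed intracellularly from a pBAD plasmid library in pooled LB shake-flask culture, induced with 0.3% L-arabinose, DNA abundance read by NGS, three biological replicates, DESeq2 with apeglm shrinkage.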

Point of comparison: RRIRMRPPRLPRPRPRPWCKPRP, “shrunken log2 fold change” value 0.0317. Against it:
- RRIRWRPPRLPRPRPRPKCIPRP — lower, -0.217
- RRIRCRPPRLPRPRPRPMATPRP — within 0.2 log units, 0.0993
- RRIRSRPPRLPRPRPRPWWKPRP — within 0.2 log units, -0.0475
- RRIRARPPRLPRPRPRPMWPPRP — higher, 0.527
- RRIRYRPPRLPRPRPRPWEPPRP — within 0.2 log units, -0.0182
- RRIRLRPPRLPRPRPRPYQFPRP — within 0.2 log units, -0.0128
- RRIRIRPPRLPRPRPRPPMEPRP — within 0.2 log units, -0.0294
- RRIRRRPPRLPRPRPRPNKEPRP — within 0.2 log units, -0.0865
- RRIRHRPPRLPRPRPRPHKCPRP — within 0.2 log units, -0.11
- RRIRHRPPRLPRPRPRPERLPRP — within 0.2 log units, 0.0977
- RRIRKRPPRLPRPRPRPWRYPRP — within 0.2 log units, -0.00865
- RRIRKRPPRLPRPRPRPPRVPRP — higher, 0.648
- RRIRHRPPRLPRPRPRPPICPRP — within 0.2 log units, -0.0463
- RRIRVRPPRLPRPRPRPESQPRP — within 0.2 log units, -0.0489
- RRIRDRPPRLPRPRPRPERNPRP — higher, 0.278
- RRIRRRPPRLPRPRPRPHVAPRP — within 0.2 log units, -0.138
- RRIRHRPPRLPRPRPRPLVHPRP — lower, -0.238
- RRIRKRPPRLPRPRPRPTWIPRP — within 0.2 log units, 0.00938
- RRIRDRPPRLPRPRPRPEYVPRP — within 0.2 log units, -0.00373
- RRIRIRPPRLPRPRPRPFPEPRP — lower, -0.45
- RRIRPRPPRLPRPRPRPSAIPRP — lower, -0.32
- RRIRGRPPRLPRPRPRPIHYPRP — lower, -0.242
- RRIRDRPPRLPRPRPRPQGFPRP — within 0.2 log units, -0.00674
- RRIRGRPPRLPRPRPRPHFAPRP — higher, 0.628
- RRIRMRPPRLPRPRPRPIMCPRP — lower, -0.19
- RRIRGRPPRLPRPRPRPMNDPRP — higher, 0.337
- RRIRHRPPRLPRPRPRPSPCPRP — lower, -0.225
- RRIRYRPPRLPRPRPRPKSVPRP — lower, -0.187
- RRIRGRPPRLPRPRPRPELMPRP — higher, 0.853
- RRIRPRPPRLPRPRPRPTRAPRP — higher, 0.707
- RRIRKRPPRLPRPRPRPKSVPRP — higher, 0.451
- RRIRKRPPRLPRPRPRPEHHPRP — within 0.2 log units, -0.0888
- RRIRNRPPRLPRPRPRPCLQPRP — lower, -0.344
- RRIRARPPRLPRPRPRPQRAPRP — higher, 1.26
- RRIRSRPPRLPRPRPRPVYFPRP — lower, -0.347
- RRIRQRPPRLPRPRPRPFPPPRP — within 0.2 log units, -0.0272
- RRIRLRPPRLPRPRPRPNSVPRP — within 0.2 log units, -0.11
- RRIRVRPPRLPRPRPRPCMPPRP — within 0.2 log units, 0.112
- RRIRDRPPRLPRPRPRPRAYPRP — lower, -0.212
- RRIRHRPPRLPRPRPRPKGAPRP — within 0.2 log units, -0.011
- RRIRNRPPRLPRPRPRPKNYPRP — lower, -0.752
- RRIRDRPPRLPRPRPRPCAEPRP — higher, 0.508
- RRIRIRPPRLPRPRPRPMAWPRP — within 0.2 log units, 0.0272
- RRIRIRPPRLPRPRPRPVMCPRP — within 0.2 log units, 0.062
- RRIRERPPRLPRPRPRPHGAPRP — within 0.2 log units, 0.0169
- RRIRARPPRLPRPRPRPWKPPRP — within 0.2 log units, 4.26e-05
- RRIRDRPPRLPRPRPRPGNSPRP — within 0.2 log units, -0.0582
- RRIRTRPPRLPRPRPRPCLYPRP — lower, -0.342
- RRIRGRPPRLPRPRPRPMESPRP — higher, 0.295
- RRIRYRPPRLPRPRPRPIVLPRP — lower, -0.213
- RRIRFRPPRLPRPRPRPTIAPRP — lower, -0.27
- RRIRRRPPRLPRPRPRPDYWPRP — within 0.2 log units, 0.0192
- RRIRHRPPRLPRPRPRPIEIPRP — within 0.2 log units, -0.161
- RRIRWRPPRLPRPRPRPDMKPRP — within 0.2 log units, 0.0231
- RRIRNRPPRLPRPRPRPHLHPRP — within 0.2 log units, -0.121
- RRIRARPPRLPRPRPRPWQFPRP — higher, 0.456
- RRIRARPPRLPRPRPRPGMNPRP — within 0.2 log units, -0.0966
- RRIRARPPRLPRPRPRPNIDPRP — within 0.2 log units, -0.0883
- RRIRWRPPRLPRPRPRPCKNPRP — within 0.2 log units, -0.0451
- RRIRVRPPRLPRPRPRPMCYPRP — lower, -0.306
- RRIRARPPRLPRPRPRPSDSPRP — lower, -0.197
- RRIRTRPPRLPRPRPRPPVPPRP — within 0.2 log units, 0.139
- RRIRMRPPRLPRPRPRPLMRPRP — higher, 1.16
- RRIRDRPPRLPRPRPRPKRRPRP — higher, 0.529
- RRIRVRPPRLPRPRPRPHFSPRP — within 0.2 log units, -0.0373
- RRIRRRPPRLPRPRPRPTWMPRP — within 0.2 log units, 0.174
- RRIRLRPPRLPRPRPRPHNAPRP — higher, 1.08
- RRIRNRPPRLPRPRPRPSSWPRP — within 0.2 log units, 0.0908
- RRIRGRPPRLPRPRPRPISAPRP — higher, 0.363
- RRIRKRPPRLPRPRPRPGPFPRP — higher, 0.56
- RRIRVRPPRLPRPRPRPKAGPRP — within 0.2 log units, 0.0641
- RRIRERPPRLPRPRPRPFQYPRP — lower, -0.64
- RRIRNRPPRLPRPRPRPNERPRP — within 0.2 log units, 0.0308
- RRIRRRPPRLPRPRPRPSVWPRP — higher, 0.703
- RRIRQRPPRLPRPRPRPFLWPRP — within 0.2 log units, -0.0488
- RRIRCRPPRLPRPRPRPYWHPRP — lower, -1.53
- RRIRTRPPRLPRPRPRPHVNPRP — within 0.2 log units, -0.0758
- RRIRMRPPRLPRPRPRPDCTPRP — higher, 2.27
- RRIRIRPPRLPRPRPRPFPWPRP — lower, -0.519
- RRIRIRPPRLPRPRPRPHKDPRP — lower, -0.447
- RRIRKRPPRLPRPRPRPCGWPRP — within 0.2 log units, 0.179
- RRIRCRPPRLPRPRPRPYALPRP — within 0.2 log units, -0.115
- RRIRSRPPRLPRPRPRPVFTPRP — within 0.2 log units, 0.00672
- RRIRRRPPRLPRPRPRPRLDPRP — higher, 0.347
- RRIRCRPPRLPRPRPRPIWWPRP — higher, 0.475
- RRIRWRPPRLPRPRPRPHARPRP — higher, 0.516
- RRIRSRPPRLPRPRPRPGFLPRP — within 0.2 log units, 0.078
- RRIRSRPPRLPRPRPRPYCIPRP — lower, -0.26
- RRIRKRPPRLPRPRPRPDCEPRP — higher, 1.96
- RRIRHRPPRLPRPRPRPIILPRP — within 0.2 log units, -0.113
- RRIRRRPPRLPRPRPRPVVGPRP — higher, 0.487
- RRIRIRPPRLPRPRPRPNNTPRP — lower, -1.09
- RRIRTRPPRLPRPRPRPPSSPRP — within 0.2 log units, -0.00871
- RRIRWRPPRLPRPRPRPTSDPRP — within 0.2 log units, -0.0119
- RRIRTRPPRLPRPRPRPGCFPRP — within 0.2 log units, 0.0805
- RRIRIRPPRLPRPRPRPDMHPRP — within 0.2 log units, -0.0689
- RRIRDRPPRLPRPRPRPHEMPRP — within 0.2 log units, -0.0853
- RRIRCRPPRLPRPRPRPAIGPRP — within 0.2 log units, -0.135
- RRIRHRPPRLPRPRPRPAQNPRP — within 0.2 log units, 0.212
- RRIRMRPPRLPRPRPRPRESPRP — within 0.2 log units, 0.09
- RRIRWRPPRLPRPRPRPRRAPRP — higher, 0.737
- RRIRSRPPRLPRPRPRPSQTPRP — within 0.2 log units, -0.128
- RRIRGRPPRLPRPRPRPQWHPRP — within 0.2 log units, 0.0863
- RRIRDRPPRLPRPRPRPYPTPRP — lower, -0.635
- RRIRRRPPRLPRPRPRPQMSPRP — within 0.2 log units, 0.0441
- RRIRERPPRLPRPRPRPAASPRP — within 0.2 log units, 0.141
- RRIRYRPPRLPRPRPRPFNQPRP — within 0.2 log units, -0.0309
- RRIRKRPPRLPRPRPRPRGEPRP — higher, 0.764
- RRIRCRPPRLPRPRPRPYRAPRP — lower, -0.383
- RRIRCRPPRLPRPRPRPETVPRP — higher, 0.448
- RRIRVRPPRLPRPRPRPWPHPRP — within 0.2 log units, -0.103
- RRIRERPPRLPRPRPRPEEPPRP — within 0.2 log units, 0.139
- RRIRHRPPRLPRPRPRPRITPRP — within 0.2 log units, -0.0394
- RRIRVRPPRLPRPRPRPRLTPRP — within 0.2 log units, 0.169
- RRIRERPPRLPRPRPRPLGFPRP — within 0.2 log units, -0.118
- RRIRQRPPRLPRPRPRPKEEPRP — within 0.2 log units, 0.00489
- RRIRTRPPRLPRPRPRPIYKPRP — lower, -1.02
- RRIRFRPPRLPRPRPRPPMTPRP — within 0.2 log units, -0.0559
- RRIRARPPRLPRPRPRPNRWPRP — higher, 0.331
- RRIRYRPPRLPRPRPRPICFPRP — lower, -0.332
- RRIRFRPPRLPRPRPRPDFPPRP — within 0.2 log units, -0.0311
- RRIRTRPPRLPRPRPRPMETPRP — within 0.2 log units, 0.0774
- RRIRFRPPRLPRPRPRPWECPRP — within 0.2 log units, -0.0123
- RRIRPRPPRLPRPRPRPPDFPRP — lower, -0.256
